From US10899842 (dated 2021)

B1: ZW106 (antibody, V domains shown)
VH: QVQLQQPESELVRPGGSVKLSCKASGYTFTSYWMDWVKQRHGQGLEWIGNIYPDSGGTNYAEKFKSKATLTVDTSSSTAYMHLSSLTSEDSAVYYCTREEALGGYYELTYWGQGTLVTVSA
VL: DIVLTQSPASLPVSLGQRATISCRASQSVSTSSYSYMHWYQQKPGQPPKLLIKYASNLESGVPARFSGSGSGTDFTLNIHPVEEEDTATYYCQHSWEIPYTFGGGTKLEIE
B2: ZW107 (antibody, V domains shown)
VH: QVQLQQSGAELVRPGTSVKISCKASGYAFTNYWLGWVKQRPGHGLEWIGDIYPGNGNNYYSEKFKDKATLTADKSSSTVYIRLSSLTSEDSAVYFCARHGSFRSAMDYWGQGTSVTVSS
VL: DIQMTQSPASPSASVGETVTITCRASENIYSYLAWYQQKQGKSPQLLVYNAKTLADGVPSRFSGSGSGTQFSLKINSLQPEDFGSYYCQHHYGTPPTFGGGTKLEIK
B3: ZW103 (antibody, V domains shown)
VH: QVQLQQSGAELVRPGVSVKISCKGSGYTFTDYAMHWVKQSHVKSLEWIGGISTYNGDASYNQKFKGKATMTVDKSSRTAYMELVRLTSEDSAIYYCAPSNYGYAMDYWGQGTSVTVSS
VL: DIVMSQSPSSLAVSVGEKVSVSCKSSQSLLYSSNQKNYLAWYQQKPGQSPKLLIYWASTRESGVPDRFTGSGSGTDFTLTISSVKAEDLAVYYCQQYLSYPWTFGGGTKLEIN
B4: ZW104 (antibody, V domains shown)
VH: QVQLQQSGAELARPGASVKMSCKASGYIFTTYAMHWVKQRPGQGLEWIGYINPTTVYTIYNQKFKDKATLTADKSSSTAYMQLSSLTSEDSAVYYCARLGGHWYFDVWGAGTTVTVSS
VL: not shown

Target: human 4-1BB ECD (human, UniProt Q07011)
Sequence (Q07011 24-186): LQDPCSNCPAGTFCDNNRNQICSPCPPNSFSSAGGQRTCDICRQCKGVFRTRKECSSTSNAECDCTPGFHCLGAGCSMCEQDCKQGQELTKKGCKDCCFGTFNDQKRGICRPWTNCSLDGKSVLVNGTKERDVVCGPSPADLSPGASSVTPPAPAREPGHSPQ

Binder | Kd [nM]
B1 | 1.2
B2 | < 0.001
B3 | 0.265
B4 | 0.0474
